The target in assay [1] is human Mpl receptor, full length, on cells (human) (UniProt P40238).
The target in assay [2] is murine Mpl receptor, full length, expressed on 32D cells (subclone 1A6.1) (murine) (UniProt Q08351).
The target is the same in assay [3]. The source holds these as a separate data set.
Assay [4] deals with human Mpl receptor, full length, on cells (human, UniProt P40238). Kind of assay: cell-based or functional assay.
Assay [5] addresses murine Mpl receptor, full length, expressed on 32D cells (subclone 1A6.1) (murine, UniProt Q08351). Description: cell-based or functional assay.

As for “25 kd canine Mpl ligand purified from aplastic canine plasma”, the Human Meg assay (units/mg) in assay [1] amounted to 1.4e+10 units/mg. The same molecule registered a 1A6.1 assay (units/mg) in assay [2] of 1.05e+10 units/mg. The molecule further showed a 1A6.1 cell growth, fraction diluted 1:45000 (cells per well) in assay [3] of 6000.

Regarding “31 kd canine Mpl ligand purified from aplastic canine plasma”, the Human Meg assay (units/mg) in assay [1] stood at 5.7e+09 units/mg. The same molecule gave a 1A6.1 assay (units/mg) in assay [2] of 6.52e+09 units/mg.

B1: human MGDF-3 (amino acids 1-265 of SEQ ID NO: 27) (ligand)
chain: SPAPPACDLRVLSKLLRDSHVLHSRLSQCPEVHPLPTPVLLPAVDFSLGEWKTQMEETKAQDILGAVTLLLEGVMAARGQLGPTCLSSLLGQLSGQVRLLLGALQSLLGTQLPPQGRTTAHKDPNAIFLSFQHLLRGKDFWIVGDKLHCLSQNYWLWASEVAAGIQSQDSWSAEPNLQVPGPNPRIPEQDTRTLEWNSWTLSWTLTQDPRSPGHFLRNIRHRLPATQPPAWIFSFPNPSSYWTVYALPSSTHLAHPCGPAPPPAS
As to B1, the “Megakaryocytes per Well (-mur-MPL-X)” value in assay [4] was determined as 2 megakaryocytes per well. In addition, in assay [5], the “U/ml (- mur-MPL-X), 1A6.1 cells” value worked out at 0 U/ml.

B2: human MGDF-2 (amino acids 1-174 of SEQ ID NO: 25) (ligand)
chain: SPAPPACDLRVLSKLLRDSHVLHSRLSQCPEVHPLPTPVLLPAVDFSLGEWKTQMEETKAQDILGAVTLLLEGVMAARGQLGPTCLSSLLGQLSGQVRLLLGALQSLLGTQLPPQGRTTAHKDPNAIFLSFQHLLRGKVRFLMLVGGSTLCVR
On to B2, for which the “Megakaryocytes per Well (-mur-MPL-X)” value in assay [4] was determined as 100 megakaryocytes per well. The “U/ml (- mur-MPL-X), 1A6.1 cells” value in assay [5] was determined as 12800 U/ml.

Values taken from US5766581, “Method for treating mammals with monopegylated proteins that stimulates megakaryocyte growth and differentiation” (Amgen Inc., dated 1998).
